Here are results for six molecules from patent US20140120095A1 (Boehringer Ingelheim, published 2014).

Substitutions are numbered along the chain they refer to.

Test [1] concerns the target T1, recombinant human VEGF165 (human, UniProt P15692-4 27-191, biotinylated in the competition assays).
T1 construct: also called hVEGF165; rhVEGF165
Kind of test: binding ELISA, coated rhVEGF165. For orientation: ELISA stands for enzyme-linked immunosorbent assay.

Test [2] deals with T1, recombinant human VEGF165. The test is described as follows: competition AlphaScreen, bio-VEGF165 and VEGFR1-Fc. Here is the method: (§1) Finally, streptavidin donor beads (20 μg/ml) are added and after 1 hour of incubation in the dark, fluorescence is measured on the Envision microplate reader.
Test [3] concerns the target T1, recombinant human VEGF165. Kind of test: competition ELISA, biotinylated VEGF165 to coated VEGFR1-Fc.
Test [4] concerns the target T1, recombinant human VEGF165. Kind of test: SPR (Biacore), immobilised VEGF165, Two State Reaction model. As for the experimental part:
(§2) Samples are injected for 2 min and allowed to dissociate up to 20 min at a flow rate of 45 μl/min. In between sample injections, the chip surface is regenerated with 100 mM HCl. HBS-EP+(Hepes buffer pH7.4+EDTA) is used as running buffer. Binding curves are fitted using a Two State Reaction model by Biacore T100 Evaluation Software v2.0.1.
^{(a)}Heterogeneous binding curve resulting in no 1:1 fit, curves are fitted using a Two State Reaction model by Biacore T100 Evaluation Software v2.0.1

The target of test [5] is T1, recombinant human VEGF165. The test is described as follows: competition AlphaScreen, bio-VEGF165 and VEGFR2-Fc. Here is the method: as §1
For orientation: Bead proximity is the source of the signal in Alpha formats.

Test [6] has as its target T1, recombinant human VEGF165. Kind of test: SPR (Biacore), periplasmic extract over immobilised VEGF165, two phase decay fit. As for the experimental part: Dissociation rates of receptor-blocking VHHs are analyzed on Biacore (Biacore T100 instrument, GE Healthcare). HBS-EP+buffer is used as running buffer and experiments are performed at 25° C. […] After immobilization, surfaces are deactivated with 10 min injection of 1M ethanolamine pH8.5. […] Periplasmic extracts of VHHs are injected at a 10-fold dilution in running buffer for 2 min at 45 μl/min and allowed to dissociate for 10 or 15 min. Between different samples, the surfaces are regenerated with regeneration buffer. Data are double referenced by subtraction of the curves on the reference channel and of a blank running buffer injection. The dissociation phase of the processed curves is evaluated by fitting a two phase decay model in the Biacore T100 Evaluation software v2.0.1.
(In general: In SPR one partner is held on a chip, and binding of the other changes the refractive index at the surface.)

Test [7] deals with T2, recombinant human VEGF121 (R&D Systems) (human, UniProt P15692-9 27-147).
T2 construct: also called rhVEGF121
T2 sequence (looked up): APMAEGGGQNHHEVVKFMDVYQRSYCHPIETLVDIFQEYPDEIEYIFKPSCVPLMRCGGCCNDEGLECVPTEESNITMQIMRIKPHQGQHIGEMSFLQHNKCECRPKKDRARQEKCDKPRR
Kind of test: binding ELISA, coated recombinant human VEGF121. As for the experimental part: Binding to recombinant human VEGF121 is assessed via a solid phase binding ELISA. […] Wells are blocked with a casein solution (1% in PBS).

Test [8] concerns the target T3, recombinant mouse VEGF164 (R&D Systems) (mouse, UniProt Q00731-2 27-190).
T3 construct: also called rmVEGF164; mVEGF164
T3 sequence (looked up): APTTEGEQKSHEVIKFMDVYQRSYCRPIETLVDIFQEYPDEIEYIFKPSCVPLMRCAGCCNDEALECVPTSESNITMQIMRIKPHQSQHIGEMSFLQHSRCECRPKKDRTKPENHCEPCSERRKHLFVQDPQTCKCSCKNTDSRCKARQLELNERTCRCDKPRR
Kind of test: binding ELISA, coated rmVEGF164. Here is the method:
Cross-reactivity to mouse VEGF164 is determined using a binding ELISA. […] Wells are blocked with a casein solution (1% in PBS). […] A mouse VEGF164 reactive mAb is included as positive control.

Test [9] has as its target T1, recombinant human VEGF165. The test is described as follows: competition ELISA, biotinylated VEGF165 to coated VEGFR2-Fc.
The target in test [10] is T4, VEGFC (UniProt P49767 103-227, limits assumed).
T4 sequence (looked up): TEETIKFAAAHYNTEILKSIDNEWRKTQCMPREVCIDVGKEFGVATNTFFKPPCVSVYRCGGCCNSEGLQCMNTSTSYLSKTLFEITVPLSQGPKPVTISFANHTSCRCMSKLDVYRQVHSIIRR
The test is described as follows: solid phase binding ELISA, 500 nM-32 pM VHH. As for the experimental part:
(§3) Binding to VEGFB, VEGFC, VEGFD and PIGF is assessed via a solid phase binding ELISA. […] Wells are blocked with a casein solution (1% in PBS). […] As positive controls serial dilutions of the appropriate receptors are taken along and detected with horseradish peroxidase (HRP)-conjugated goat anti-human IgG, Fc specific antibody (Jackson Immuno Research Laboratories Inc., West Grove, Pa., USA) and a subsequent enzymatic reaction in the presence of the substrate TMB (3,3′,5,5′-tetramentylbenzidine) (Pierce, Rockford, Ill., USA).

Test [11] concerns the target T5, VEGFD (UniProt O43915 93-201, limits assumed).
T5 sequence (looked up): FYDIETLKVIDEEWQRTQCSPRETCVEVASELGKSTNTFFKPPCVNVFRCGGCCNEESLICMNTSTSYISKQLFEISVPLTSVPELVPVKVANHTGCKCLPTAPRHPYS
Kind of test: solid phase binding ELISA, 500 nM-32 pM VHH. As for the experimental part: as §3

In test [12] the target is T6, VEGFB (UniProt P49765-2 22-188, limits assumed).
T6 sequence (looked up): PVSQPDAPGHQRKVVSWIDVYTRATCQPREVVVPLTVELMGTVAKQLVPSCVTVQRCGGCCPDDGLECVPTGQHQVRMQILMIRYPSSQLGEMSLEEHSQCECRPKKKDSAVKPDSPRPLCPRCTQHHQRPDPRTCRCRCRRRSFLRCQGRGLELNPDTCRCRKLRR
The test is described as follows: solid phase binding ELISA, 500 nM-32 pM VHH. As for the experimental part: as §3

The target of test [13] is T7, PIGF (UniProt P49763-2 21-149, limits assumed).
T7 construct: also called placenta growth factor
T7 sequence (looked up): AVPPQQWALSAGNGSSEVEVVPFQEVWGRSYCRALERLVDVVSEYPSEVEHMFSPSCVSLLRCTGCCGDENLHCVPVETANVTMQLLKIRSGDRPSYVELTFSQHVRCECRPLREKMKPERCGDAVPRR
Kind of test: solid phase binding ELISA, 500 nM-32 pM VHH. Here is the method:
as §3

The target of test [14] is T8, recombinant human VEGF165 (human, UniProt P15692-4 27-191, biotinylated in the competition assays).
T8 construct: Bought protein; also called hVEGF165; rhVEGF165
The test is described as follows: SPR Biacore, hVEGF165. As for the experimental part: as §2

The target in test [15] is T8, recombinant human VEGF165. The test is described as follows: ProteOn off-rate assay, periplasmic extract on coated hVEGF165. Here is the method:
One additional variant is constructed in which the potential oxidation site at position M30 (CDR1 region, see FIG. 38 indicated as bold italic residue) is removed by introduction of a M30I mutation. […] Off-rates are calculated and compared to the off-rates of the parental VEGFBII5B05.

B1: VEGFBII23B04 (VHH, not shown: small tags and cut ends)
VHH: EVQLVESGGGLVQTGDSLRLSCEVSGRTFSSYSMGWFRQAQGKEREFVVAISKGGYKYDSVSLEGRFTISKDNAKNTVYLQINSLKPEDTAVYYCASSRAYGSSRLRLADTYEYWGQGTQVTVSS
notes: also called VEGFBII23B4
The term EC50 denotes the concentration needed to bring the measured effect to its halfway point. In general, IC50 refers to the concentration at which inhibition is half-maximal. In general, Kd refers to the equilibrium constant for the complex coming apart. As for B1, the EC50 in [1] came out at 0.297 nM; in [7], 0.51 nM. Moreover, the half-inhibitory concentration (IC50) in [2] is 0.9 nM; in [3] it was 0.5 nM; in test [5] it was 0.16 nM; in test [9] it was 2.1 nM. The dissociation constant (Kd) in test [4] was determined as 0.7 nM. The “kd (fast)” value in test [6] is 0.0088. For the same molecule, the “kd (slow)” value in test [6] worked out at 4e-05. Moreover, the binding result in test [8] was “no binding (tested: dilution series 500 nM-32 pM)”.

B2: VEGFBII23B04 (VHH)
VHH: B1 VHH
notes: also called VEGFBII23B4
On to B2, for which the binding result in test [10], in [11], in test [12] and in test [13] was “no binding (tested: 500 nM)” in each case.

B3: VEGFBII5B05 (VHH)
VHH: EVQLVESGGGLVQPGGSLRLSCVASGIRFMSMAWYRQAPGKHRELVARISSGGTTAYVDSVKGRFTISRDNSKNTVYLQMNSLKAEDTAVYYCNTFSSRPNPWGAGTQVTVSS
notes: also called VEGFBII05B05; VEGFBII5B05(wt)
Usually koff stands for the rate constant with which the complex falls apart. With B3, the equilibrium dissociation constant (Kd) in [14] amounted to 32 nM. In test [15], the “binding level (RU)” value came out at 242 RU and the koff amounted to 0.0615 s⁻¹.

B4: VEGFBII032 (VHH)
VHH: B3 VHH with V23A, M30I, H42Q, V58A, K84R, A105Q, Q108L
notes: also called VEGFBII0032
As to B4, the Kd in test [14] was 44 nM.

B5: VEGFBII23A06 (VHH, not shown: small tags and cut ends)
VHH: EVQLVESGGGLVQPGDSLKLSCAFSGRTFSSYSMGWFRQAQGKEREFVVAISSGGFIYDAVSLEGRFTISRDNTKNTVYLQTPSLKPEDTAVYYCAASRAYGSSRLRLADTYDYWGQGTQVTVSS
Regarding B5, the EC50 was determined as 0.531 nM in [1] and 0.928 nM in [7]. Further, the IC50 in test [2] is 0.4 nM; in [3], 0.9 nM; in test [5], 0.25 nM; in [9], 3 nM. Besides, the Kd in [4] amounted to 0.7 nM. Also, in test [6], the “kd (fast)” value worked out at 0.017. In test [6], the “kd (slow)” value came out at 3.7e-05. In test [8], the binding result is recorded as “no binding (tested: dilution series 500 nM-32 pM)”.

B6: VEGFBII23A06 (VHH)
VHH: B5 VHH
As for B6, the binding result in test [10], in test [11], in [12] and in test [13] was “no binding (tested: 500 nM)” in each case.
